We go through 27 molecules from patent publication US20260356955 (published 2026).

Positions count from the first letter of the chain named.

To fix the notation:
T1: cynomolgus KLRB1 ECD (cynomolgus)
T1 chain: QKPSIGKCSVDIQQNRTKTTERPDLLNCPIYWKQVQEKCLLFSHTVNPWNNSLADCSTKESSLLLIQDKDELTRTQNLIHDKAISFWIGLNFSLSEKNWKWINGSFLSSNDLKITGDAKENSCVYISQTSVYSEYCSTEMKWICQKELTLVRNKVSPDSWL

T2: cynomolgus KLRB1 on CHO-K1 (cynomolgus)
T2 chain: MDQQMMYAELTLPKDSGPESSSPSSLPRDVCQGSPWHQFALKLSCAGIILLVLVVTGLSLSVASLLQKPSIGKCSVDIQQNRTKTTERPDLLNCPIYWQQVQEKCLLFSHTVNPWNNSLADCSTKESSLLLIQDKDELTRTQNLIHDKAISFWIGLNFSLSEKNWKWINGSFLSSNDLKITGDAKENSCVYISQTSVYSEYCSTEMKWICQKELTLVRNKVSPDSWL

B1: Hu47A5H2-14 (antibody, V domains shown)
VH: QVQLVQSGAEVKKPGASVKVSCKGSGYSFTGYWMHWVRQAPGQGLEWMGMIHPSDSETRLNQKFKDKVTMTVDKSTSTVYMELSSLRSEDTAVYYCASEGLRRGSFAYWGQGTLVTVSS
VL: DIVLTQSPDSLAVSLGERATINCRASESVDNYGMTFMSWYQQKPGQPPKLLIYAASNQGSGVPDRFSGSGSGTDFTLTISSLQAEDVAVYYCQQSKEVPYTFGQGTKLEIK
B2: Hu47A5H2-15 (antibody, V domains shown)
VH: B1 VH
VL: B1 VL with Y40F
B3: Hu47A5H2-10 (antibody, V domains shown)
VH: B1 VH with G24A, K67R
VL: B1 VL
B4: Hu47A5H2-12 (antibody, V domains shown)
VH: B1 VH with G24A, K67R
VL: EIVLTQSPATLSLSPGERATLSCRASESVDNYGMTFMSWYQQKPGQAPRLLIYAASNQGSGIPARFSGSGSGTDFTLTISSLEPEDFAVYYCQQSKEVPYTFGQGTKLEIK
B5: Hu47A5H2-13 (antibody, V domains shown)
VH: B1 VH
VL: B1 VL with L4M
B6: Hu47A5H2-03 (antibody, V domains shown)
VH: B1 VH with G24A, K67R, V72R, K74T
VL: B1 VL with Y40F
B7: Hu47A5H2-09 (antibody, V domains shown)
VH: B1 VH with G24A, K67R
VL: B1 VL with L4M
B8: Hu47A5H2-16 (antibody, V domains shown)
VH: B1 VH
VL: B4 VL
B9: Hu47A5H2-01 (antibody, V domains shown)
VH: B1 VH with G24A, K67R, V72R, K74T
VL: B1 VL with L4M
B10: Hu47A5H2-02 (antibody, V domains shown)
VH: B1 VH with G24A, K67R, V72R, K74T
VL: B1 VL
B11: Hu47A5H2-08 (antibody, V domains shown)
VH: B1 VH with G24A, K67R, K74T
VL: B4 VL
B12: Hu47A5H2-06 (antibody, V domains shown)
VH: B1 VH with G24A, K67R, K74T
VL: B1 VL
B13: Hu47A5H2-04 (antibody, V domains shown)
VH: B1 VH with G24A, K67R, V72R, K74T
VL: B4 VL
B14: Hu47A5H2-05 (antibody, V domains shown)
VH: B1 VH with G24A, K67R, K74T
VL: B1 VL with L4M
B15: Hu22F10G3-1.4 (antibody, V domains shown)
VH: QVQLQESGPGLVKPSQTLSLTCTVSGYSLTSDFAWNWIRQHPGKGLEWIGDIRYSGSTDYNPSLKGRVTISVDTSKNQFSLKLSSVTAADTAVYYCARGGYYGYDEGYPMDYWGQGTLVTVSS
VL: DIVMTQSPDSLAVSLGERATISCRASESVDVYGNSFMHWYQQKPGQPPKLLIYLAFNLKSGVPARFSGSGSGTDFTLTISSLQAEDVATYYCQQNNEDPFTFGQGTKLEIK
B16: Hu22F10G3-3.3 (antibody, V domains shown)
VH: B15 VH with I49M, V68S, V72R
VL: B15 VL with A64D, T89V
B17: Hu22F10G3-3.2 (antibody, V domains shown)
VH: B15 VH with I49M, V68S, V72R
VL: B15 VL with S22N, T89V
B18: Hu22F10G3-4.1 (antibody, V domains shown)
VH: B15 VH with H41F, I49M, V68S, V72R, S80F
VL: B15 VL with S22N, A64D, T89V
B19: Hu22F10G3-4.4 (antibody, V domains shown)
VH: B15 VH with H41F, I49M, V68S, V72R, S80F
VL: B15 VL
B20: Hu22F10G3-3.1 (antibody, V domains shown)
VH: B15 VH with I49M, V68S, V72R
VL: B15 VL with S22N, A64D, T89V
B21: Hu22F10G3-1.3 (antibody, V domains shown)
VH: B15 VH
VL: B15 VL with A64D, T89V
B22: Hu22F10G3-2.2 (antibody, V domains shown)
VH: B15 VH with I49M, V72R
VL: B15 VL with S22N, T89V
B23: Hu22F10G3-4.2 (antibody, V domains shown)
VH: B15 VH with H41F, I49M, V68S, V72R, S80F
VL: B15 VL with S22N, T89V
B24: Hu22F10G3-2.1 (antibody, V domains shown)
VH: B15 VH with I49M, V72R
VL: B15 VL with S22N, A64D, T89V
B25: Hu22F10G3-4.3 (antibody, V domains shown)
VH: B15 VH with H41F, I49M, V68S, V72R, S80F
VL: B15 VL with A64D, T89V
B26: Hu22F10G3-2.4 (antibody, V domains shown)
VH: B15 VH with I49M, V72R
VL: B15 VL
B27: Hu22F10G3-1.2 (antibody, V domains shown)
VH: B15 VH
VL: B15 VL with S22N, T89V

The target of the first assay is human KLRB1 ECD (human). The experiment in a line: ELISA.
Sequence of human KLRB1 ECD (human) (chain, as listed by the source): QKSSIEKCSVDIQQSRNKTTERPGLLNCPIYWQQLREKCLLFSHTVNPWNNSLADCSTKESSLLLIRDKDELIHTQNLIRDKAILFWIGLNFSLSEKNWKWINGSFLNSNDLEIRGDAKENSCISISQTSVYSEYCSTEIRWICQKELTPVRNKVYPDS
Take B1: the concentration giving a half-maximal response (EC50) amounted to 0.0309 nM.
B2: the 50% effective concentration (EC50) was 0.0241 nM.
Take B3: the EC50 is 0.0272 nM.
Molecule B4 returned an EC50 of 0.0263 nM.
As to B5, the response was half-maximal at 0.0266 nM (EC50).
Regarding B6, the EC50 came to 0.0205 nM.
In the case of B7, the EC50 amounted to 0.0273 nM.
B8 registered a 50% effective concentration (EC50) of 0.0287 nM.
Take B9: the EC50 stood at 0.0195 nM.
Take B10: the 50% effective concentration (EC50) worked out at 0.0198 nM.
B11 yielded a half-maximal effective concentration (EC50) of 0.0174 nM.
Still for that read-out and setting: the figure for B12 is 0.0204 nM; for B13 it is 0.0212 nM; for B14 it is 0.0172 nM.

For a further assay, the target named is human KLRB1 on CHO-K1 (human). Briefly: FACS.
Sequence of human KLRB1 on CHO-K1 (human) (chain, as listed by the source): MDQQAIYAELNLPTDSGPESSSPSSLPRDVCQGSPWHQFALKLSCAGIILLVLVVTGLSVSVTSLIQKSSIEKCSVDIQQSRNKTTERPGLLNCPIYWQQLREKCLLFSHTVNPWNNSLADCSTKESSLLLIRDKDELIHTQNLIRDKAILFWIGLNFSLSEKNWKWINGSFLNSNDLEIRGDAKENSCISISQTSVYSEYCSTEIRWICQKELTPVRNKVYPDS
As to B1, the half-maximal effective concentration (EC50) was determined as 2.12 nM.
B2: a half-maximal response (EC50) required 1.98 nM.
B3 came in with an EC50 of 0.88 nM.
On the same count and under the same terms, under B4 stands 5.16 nM.
As for B5, the EC50 amounted to 1.79 nM.
On the same count and under the same terms, under B6 stands 1.73 nM; under B7, 1.96 nM; under B8, 2.11 nM.
In the case of B9, the EC50 amounted to 2.65 nM.
The same measure, in the same setting: under B10 stands 2.08 nM; under B11, 1.68 nM.
As for B12, the EC50 was found to be 1.67 nM.
As to B13, the concentration for a half-maximal effect (EC50) was found to be 1.67 nM.
In turn, B14 came in with a concentration giving a half-maximal response (EC50) of 1.49 nM.

The target of another assay is T1, cynomolgus KLRB1 ECD. The experiment in a line: ELISA.
The molecule B1 gave a 50% effective concentration (EC50) of 0.0414 nM.
Regarding B2, the EC50 amounted to 0.00973 nM.
As to B3, the response was half-maximal at 0.0174 nM (EC50).
The molecule B4 returned an EC50 of 0.02 nM.
In turn, B5 had a concentration giving a half-maximal response (EC50) of 0.0984 nM.
The molecule B6 yielded a concentration for a half-maximal effect (EC50) of 0.0137 nM.
For B7, the 50% effective concentration (EC50) was determined as 0.0283 nM.
Still for that read-out and setting: the figure for B8 is 0.0429 nM.
B9 yielded a concentration for a half-maximal effect (EC50) of 0.116 nM.
Molecule B10 gave an EC50 of 0.0372 nM.
In turn, B11 showed a concentration giving a half-maximal response (EC50) of 0.0306 nM.
As for B12, it took 0.0562 nM to reach a half-maximal effect (EC50).
B13 displayed a concentration for a half-maximal effect (EC50) of 0.0441 nM.
As for B14, the response was half-maximal at 0.0824 nM (EC50).

The next assay deals with human KLRB1 on CHO-K1 (human). The experiment in a line: competition, CLEC2D, FACS.
B1 came in with an IC50 of 2.54 nM.
In turn, B2 yielded a 50% inhibitory concentration (IC50) of 2.47 nM.
Still for that read-out and setting: under B3 stands 1.96 nM; under B4, 2.17 nM.
Take B5: the half-inhibitory concentration (IC50) amounted to 2.31 nM.
With B6, the half-maximal inhibitory concentration (IC50) is 2.31 nM.
Molecule B7 registered a 50% inhibitory concentration (IC50) of 2.22 nM.
As to B8, the concentration for half-maximal inhibition (IC50) came out at 2.41 nM.
As to B9, the IC50 stood at 1.59 nM.
Consider B10, for which the IC50 was 2.05 nM.
Molecule B11 came in with a concentration for half-maximal inhibition (IC50) of 2.42 nM.
Still for that read-out and setting: under B12 stands 2.66 nM; under B13, 2.53 nM.
On to B14, for which the concentration for half-maximal inhibition (IC50) was 2.16 nM.

The next assay has as its target T2, cynomolgus KLRB1 on CHO-K1. Briefly: FACS.
Regarding B1, the EC50 was around 1.82 nM.
With B2, the EC50 was around 1.74 nM.
The molecule B3 returned a concentration for a half-maximal effect (EC50) of around 1.65 nM.
In turn, B4 came in with an EC50 of around 1.69 nM.
B5: the EC50 was around 1.81 nM.
Take B6: it took 11.6 nM to reach a half-maximal effect (EC50).
For B7, the 50% effective concentration (EC50) was around 1.86 nM.
B8 yielded an EC50 of around 1.8 nM.
Molecule B9 registered an EC50 of 7.76 nM.
B10: it took 7.51 nM to reach a half-maximal effect (EC50).
In the case of B11, it took 2.55 nM to reach a half-maximal effect (EC50).
Consider B12, for which the EC50 stood at 6.62 nM.
Take B13: the 50% effective concentration (EC50) stood at 4.71 nM.
The molecule B14 had an EC50 of 5.22 nM.

In another assay the target is human KLRB1 ECD (human). The experiment in a line: SPR.
Molecule B15 showed an equilibrium dissociation constant (Kd) of 0.153 nM.
Regarding B16, the Kd amounted to 0.18 nM.
Regarding B17, the Kd turned out to be 0.189 nM.
As to B18, binding was put at a Kd of 0.105 nM.
In turn, B19 returned a dissociation constant (Kd) of 0.121 nM.
As to B20, the affinity, expressed as Kd, was 0.122 nM.
Molecule B21 registered an equilibrium dissociation constant (Kd) of 0.177 nM.
B22 registered a Kd of 0.135 nM.
The molecule B23 registered a Kd of 0.13 nM.
B24 had a dissociation constant Kd of 0.104 nM.
B25 registered a dissociation constant Kd of 0.0972 nM.
As to B26, the equilibrium dissociation constant (Kd) stood at 0.116 nM.
With B27, binding was characterised by a dissociation constant (Kd) of 0.152 nM.
